Results taken from patent publication US11833164B2, “Methods of treating Fabry disease in patients having a mutation in the GLA gene” (Amicus Therapeutics, Inc., priority 2019, dated 2023).

System: mutant form of α-Gal A expressed in HEK-293 cells
Test: HEK assay (GLP HEK / Migalastat Amenability Assay): α-Gal A activity in lysates of transiently transfected HEK-293 cells incubated with or without 10 μM migalastat
Format: cell-based, human
Conditions: for Absolute increase (% WT) / Relative increase: 10 μM migalastat versus baseline; for Baseline α-Gal A activity (% WT): absence of migalastat; for Baseline α-Gal A activity (% WT) / 10 μM migalastat α-Gal A activity (% WT): percentage of baseline wild-type α-Gal A activity; for Baseline α-Gal A activity (% WT) / Baseline α-Gal A activity / 10 μM migalastat α-Gal A activity / 10 μM migalastat α-Gal A activity (% WT): mean ± SEM; for Baseline α-Gal A activity / 10 μM migalastat α-Gal A activity: lysates of HEK-293 cells transiently transfected with the mutant form; for Baseline α-Gal A activity: incubated 5 days in absence of migalastat; for 10 μM migalastat α-Gal A activity: incubated 5 days with 10 μM migalastat; for 10 μM migalastat α-Gal A activity (% WT): with 10 μM migalastat, 5 days
How it was run: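 HEK-293 cells transiently transfected with mutant α-Gal A and incubated with or without 10 μM migalastat; lysate activity given as nmol free 4-MU released per mg protein per hour. Values are mean±SEM.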

Molecule | Absolute increase (% WT) | Relative increase | Baseline α-Gal A activity (% WT) | Baseline α-Gal A activity [nmol/mg/h] | 10 μM migalastat α-Gal A activity [nmol/mg/h] | 10 μM migalastat α-Gal A activity (% WT)
I289V (protein) MQLRNPELHLGCALALRFLALVSWDIPGARALDNGLARTPTMGWLHWERFMCNLDCQEEPDSCISEKLFMEMAELMVSEGWKDAGYEYLCIDDCWMAPQRDSEGRLQADPQRFPHGIRQLANYVHSKGLKLGIYADVGNKTCAGFPGSFGYYDIDAQTFADWGVDLLKFDGCYCDSLENLADGYKHMSLALNRTGRSIVYSCEWPLYMWPFQKPNYTEIRQYCNHWRNFADIDDSWKSIKSILDWTSFNQERIVDVAGPGGWNDPDMLVIGNFGLSWNQQVTQMALWAVMAAPLFMSNDLRHISPQAKALLQDKDVIAINQDPLGKQGYQLRQGDNFEVWERPLSGLAWAVAMINRQEIGGPRSYTIAVASLGKGVACNPACFITQLLPVKRKLGFYEWTSRLRSHINPTGTVLLQLENTMQMSLKDLL | 13.6 | 1.2 | 61.2 ± 3.2 | 25845 ± 1706 | 31489 ± 1397 | 74.8 ± 2.7
A291G (protein) MQLRNPELHLGCALALRFLALVSWDIPGARALDNGLARTPTMGWLHWERFMCNLDCQEEPDSCISEKLFMEMAELMVSEGWKDAGYEYLCIDDCWMAPQRDSEGRLQADPQRFPHGIRQLANYVHSKGLKLGIYADVGNKTCAGFPGSFGYYDIDAQTFADWGVDLLKFDGCYCDSLENLADGYKHMSLALNRTGRSIVYSCEWPLYMWPFQKPNYTEIRQYCNHWRNFADIDDSWKSIKSILDWTSFNQERIVDVAGPGGWNDPDMLVIGNFGLSWNQQVTQMALWAIMGAPLFMSNDLRHISPQAKALLQDKDVIAINQDPLGKQGYQLRQGDNFEVWERPLSGLAWAVAMINRQEIGGPRSYTIAVASLGKGVACNPACFITQLLPVKRKLGFYEWTSRLRSHINPTGTVLLQLENTMQMSLKDLL | 34.9 | 2.3 | 26.6 ± 1.5 | 6953 ± 474 | 16073 ± 954 | 61.5 ± 2.6
A292G (protein) MQLRNPELHLGCALALRFLALVSWDIPGARALDNGLARTPTMGWLHWERFMCNLDCQEEPDSCISEKLFMEMAELMVSEGWKDAGYEYLCIDDCWMAPQRDSEGRLQADPQRFPHGIRQLANYVHSKGLKLGIYADVGNKTCAGFPGSFGYYDIDAQTFADWGVDLLKFDGCYCDSLENLADGYKHMSLALNRTGRSIVYSCEWPLYMWPFQKPNYTEIRQYCNHWRNFADIDDSWKSIKSILDWTSFNQERIVDVAGPGGWNDPDMLVIGNFGLSWNQQVTQMALWAIMAGPLFMSNDLRHISPQAKALLQDKDVIAINQDPLGKQGYQLRQGDNFEVWERPLSGLAWAVAMINRQEIGGPRSYTIAVASLGKGVACNPACFITQLLPVKRKLGFYEWTSRLRSHINPTGTVLLQLENTMQMSLKDLL | 24.3 | 1.6 | 41.1 ± 2.2 | 12091 ± 652 | 19406 ± 1361 | 65.3 ± 4
A292S (protein) MQLRNPELHLGCALALRFLALVSWDIPGARALDNGLARTPTMGWLHWERFMCNLDCQEEPDSCISEKLFMEMAELMVSEGWKDAGYEYLCIDDCWMAPQRDSEGRLQADPQRFPHGIRQLANYVHSKGLKLGIYADVGNKTCAGFPGSFGYYDIDAQTFADWGVDLLKFDGCYCDSLENLADGYKHMSLALNRTGRSIVYSCEWPLYMWPFQKPNYTEIRQYCNHWRNFADIDDSWKSIKSILDWTSFNQERIVDVAGPGGWNDPDMLVIGNFGLSWNQQVTQMALWAIMASPLFMSNDLRHISPQAKALLQDKDVIAINQDPLGKQGYQLRQGDNFEVWERPLSGLAWAVAMINRQEIGGPRSYTIAVASLGKGVACNPACFITQLLPVKRKLGFYEWTSRLRSHINPTGTVLLQLENTMQMSLKDLL | 21.3 | 1.3 | 68.6 ± 2.9 | 18002 ± 1127 | 23779 ± 1584 | 89.9 ± 3.4
L294F (protein) MQLRNPELHLGCALALRFLALVSWDIPGARALDNGLARTPTMGWLHWERFMCNLDCQEEPDSCISEKLFMEMAELMVSEGWKDAGYEYLCIDDCWMAPQRDSEGRLQADPQRFPHGIRQLANYVHSKGLKLGIYADVGNKTCAGFPGSFGYYDIDAQTFADWGVDLLKFDGCYCDSLENLADGYKHMSLALNRTGRSIVYSCEWPLYMWPFQKPNYTEIRQYCNHWRNFADIDDSWKSIKSILDWTSFNQERIVDVAGPGGWNDPDMLVIGNFGLSWNQQVTQMALWAIMAAPFFMSNDLRHISPQAKALLQDKDVIAINQDPLGKQGYQLRQGDNFEVWERPLSGLAWAVAMINRQEIGGPRSYTIAVASLGKGVACNPACFITQLLPVKRKLGFYEWTSRLRSHINPTGTVLLQLENTMQMSLKDLL | 38.8 | 2.3 | 29.6 ± 3 | 10147 ± 971 | 23486 ± 2100 | 68.4 ± 6.5
L294I (protein) MQLRNPELHLGCALALRFLALVSWDIPGARALDNGLARTPTMGWLHWERFMCNLDCQEEPDSCISEKLFMEMAELMVSEGWKDAGYEYLCIDDCWMAPQRDSEGRLQADPQRFPHGIRQLANYVHSKGLKLGIYADVGNKTCAGFPGSFGYYDIDAQTFADWGVDLLKFDGCYCDSLENLADGYKHMSLALNRTGRSIVYSCEWPLYMWPFQKPNYTEIRQYCNHWRNFADIDDSWKSIKSILDWTSFNQERIVDVAGPGGWNDPDMLVIGNFGLSWNQQVTQMALWAIMAAPIFMSNDLRHISPQAKALLQDKDVIAINQDPLGKQGYQLRQGDNFEVWERPLSGLAWAVAMINRQEIGGPRSYTIAVASLGKGVACNPACFITQLLPVKRKLGFYEWTSRLRSHINPTGTVLLQLENTMQMSLKDLL | 53.6 | 3.2 | 24.8 ± 2.4 | 8345 ± 717 | 26761 ± 1915 | 78.4 ± 6
L294V (protein) MQLRNPELHLGCALALRFLALVSWDIPGARALDNGLARTPTMGWLHWERFMCNLDCQEEPDSCISEKLFMEMAELMVSEGWKDAGYEYLCIDDCWMAPQRDSEGRLQADPQRFPHGIRQLANYVHSKGLKLGIYADVGNKTCAGFPGSFGYYDIDAQTFADWGVDLLKFDGCYCDSLENLADGYKHMSLALNRTGRSIVYSCEWPLYMWPFQKPNYTEIRQYCNHWRNFADIDDSWKSIKSILDWTSFNQERIVDVAGPGGWNDPDMLVIGNFGLSWNQQVTQMALWAIMAAPVFMSNDLRHISPQAKALLQDKDVIAINQDPLGKQGYQLRQGDNFEVWERPLSGLAWAVAMINRQEIGGPRSYTIAVASLGKGVACNPACFITQLLPVKRKLGFYEWTSRLRSHINPTGTVLLQLENTMQMSLKDLL | 33.8 | 9.0 | 4.4 ± 0.3 | 1452 ± 71 | 13038 ± 880 | 38.2 ± 2.7
F295I (protein) MQLRNPELHLGCALALRFLALVSWDIPGARALDNGLARTPTMGWLHWERFMCNLDCQEEPDSCISEKLFMEMAELMVSEGWKDAGYEYLCIDDCWMAPQRDSEGRLQADPQRFPHGIRQLANYVHSKGLKLGIYADVGNKTCAGFPGSFGYYDIDAQTFADWGVDLLKFDGCYCDSLENLADGYKHMSLALNRTGRSIVYSCEWPLYMWPFQKPNYTEIRQYCNHWRNFADIDDSWKSIKSILDWTSFNQERIVDVAGPGGWNDPDMLVIGNFGLSWNQQVTQMALWAIMAAPLIMSNDLRHISPQAKALLQDKDVIAINQDPLGKQGYQLRQGDNFEVWERPLSGLAWAVAMINRQEIGGPRSYTIAVASLGKGVACNPACFITQLLPVKRKLGFYEWTSRLRSHINPTGTVLLQLENTMQMSLKDLL | 25.7 | 1.3 | 78.3 ± 4.5 | 26687 ± 1470 | 35634 ± 2203 | 104.1 ± 6.6
F295S (protein) MQLRNPELHLGCALALRFLALVSWDIPGARALDNGLARTPTMGWLHWERFMCNLDCQEEPDSCISEKLFMEMAELMVSEGWKDAGYEYLCIDDCWMAPQRDSEGRLQADPQRFPHGIRQLANYVHSKGLKLGIYADVGNKTCAGFPGSFGYYDIDAQTFADWGVDLLKFDGCYCDSLENLADGYKHMSLALNRTGRSIVYSCEWPLYMWPFQKPNYTEIRQYCNHWRNFADIDDSWKSIKSILDWTSFNQERIVDVAGPGGWNDPDMLVIGNFGLSWNQQVTQMALWAIMAAPLSMSNDLRHISPQAKALLQDKDVIAINQDPLGKQGYQLRQGDNFEVWERPLSGLAWAVAMINRQEIGGPRSYTIAVASLGKGVACNPACFITQLLPVKRKLGFYEWTSRLRSHINPTGTVLLQLENTMQMSLKDLL | 10.5 | 16.8 | 0.6 ± 0.1 | 230 ± 45 | 3847 ± 309 | 11.1 ± 0.9
